For this test, the target named is native OspA on the surface of live B. burgdorferi B31 (Borrelia burgdorferi strain B31 …, UniProt P0CL66). Description: flow cytometry on cells.
Chain of native OspA on the surface of live B. burgdorferi B31 (P0CL66 17-273): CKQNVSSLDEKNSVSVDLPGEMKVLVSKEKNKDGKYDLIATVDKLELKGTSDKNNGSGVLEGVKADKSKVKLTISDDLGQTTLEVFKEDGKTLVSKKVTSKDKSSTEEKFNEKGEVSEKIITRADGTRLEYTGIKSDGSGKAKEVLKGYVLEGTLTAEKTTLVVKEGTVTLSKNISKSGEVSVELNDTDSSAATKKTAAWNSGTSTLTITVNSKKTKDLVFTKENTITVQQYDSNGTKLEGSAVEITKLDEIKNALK

B1: LA-2 (bin 3 OspA monoclonal antibody; chimeric LA-2 IgG1) (antibody, V domains shown)
VH: QIQLVQSGPELKKPGETVKISCKASGYTFTDYSMYWVKQAPGKGLKRMGWINTETGEPTYADDFKGRFALSLDTSASTAYLHISNLKNEDTATYFCARGLDSWGQGTSVTVSS
VL: DIQMTQSPSSLSATLGGKVTITCKASQDINKYIAWYQHKPGKGPRLLIHYTSTLQPGNPSRFSGSGSGRDYSFSISNLEAEDIAIYYCLQYDNLQRTFGGGTKVEIK
As for B1, the binding result is “binds”.

Values taken from publication doi:10.1101/2024.01.23.576890 (bioRxiv, 2024).
